Source: paper PMC5595344, “Interaction of the cyclic-di-GMP binding protein FimX and the Type 4 pilus assembly ATPase promotes pilus assembly” (PLoS Pathogens, 2017)

What was measured:
[1] = target: PilB (Pseudomonas aeruginosa, UniProt P22608); conditions: 1 mM ATP; minimal activity
[2] = target: T1, FimX (Pseudomonas aeruginosa, UniProt Q9HUK6); assay: surface plasmon resonance (BIAcore T100), FimX immobilized on CM5 chip; assay type: binding
T1 construct: dimer in solution (ca. 150 kDa by SEC)

[3] = target: the molecule itself; assay: SEC; preparative SEC after affinity purification; Superdex 200 Increase, 25 mM Tris pH 8.0, 250 mM NaCl, 5 mM MgCl2, 5 mM β-mercaptoethanol
[4] = target: the molecule itself; assay: SEC; Superdex 200 10/300; 50 μM hexameric PilB and 50 μM dimeric FimX or FimX(AAA), 30 min at RT, 25 mM Tris pH 8, 150 mM NaCl, 5 mM MgCl2, 500 μM c-di-GMP; each protein also run alone; fractions on SDS-PAGE

Question: `Nc1ncnc2c1ncn2[C@@H]1O[C@H](COP(=O)(O)OP(=O)(O)OP(=O)(O)O)[C@@H](O)[C@H]1O` [ATP] was tested. Which ATPase activity [1] did it give?
Answer: PilB shows minimal ATPase activity in vitro that is not altered by addition of FimX

Question: `Nc1nc2c(ncn2[C@@H]2O[C@@H]3CO[P@](=O)(O)O[C@H]4[C@@H](O)[C@H](n5cnc6c(=O)[nH]c(N)nc65)O[C@@H]4CO[P@](=O)(O)O[C@H]3[C@H]2O)c(=O)[nH]1` [c-di-GMP] was tested. Which Kd [2] did it give?
Answer: 88 ± 5.6 nM

B1: 10XHis-MBP tagged recombinant PilB (natural protein)
chain: MNDSIQLSGLSRQLVQANLLDEKTAVQAQAQAQRNKLSLVTHLVQSKLVSGLALAELSAEQFGIAYCDLNSLDKESFPRDAISEKLVRQHRVIPLWRRGNKLFVGISDPANHQAINDVQFSTGLTTEAILVEDDKLGLAIDKLFESATDGLAGLDDVDLEGLDIGSADKSTQEDASAEADDAPVVRFVNKMLLDAIKGGSSDLHFEPYEKIYRVRFRTDGMLHEVAKPPIQLASRISARLKVMAGLDISERRKPQDGRIKMRVSKTKSIDFRVNTLPTLWGEKIVMRILDSSSAQMGIDALGYEEDQKELYLAALKQPQGMILVTGPTGSGKTVSLYTGLNILNTTDINISTAEDPVEINLEGINQVNVNPRQGMDFSQALRAFLRQDPDVIMVGEIRDLETAEIAIKAAQTGHMVMSTLHTNSAAETLTRLLNMGVPAFNLATSVNLIIAQRLARKLCSHCKKEHEVPRETLLHEGFPEDKIGTFKLYSPVGCDHCKNGYKGRVGIYEVVKNTPALQRIIMEEGNSIEIAEQARKEGFNDLRTSGLLKAMQGITSLEEVNRVTKD
notes: also called hexameric PilB; purified PilB; source: E. coli BL21(DE3), purified (Ni-NTA, amylose resin, SEC)
Question: B1 was tested. Which “stoichiometry N” value [3] did it give?
Answer: 6

B2: 10XHis-MBP tagged recombinant PilT (natural protein)
chain: MDITELLAFSAKQGASDLHLSAGLPPMIRVDGDVRRINLPPLEHKQVHALIYDIMNDKQRKDFEEFLETDFSFEVPGVARFRVNAFNQNRGAGAVFRTIPSKVLTMEELGMGEVFKRVSDVPRGLVLVTGPTGSGKSTTLAAMLDYLNNTKYHHILTIEDPIEFVHESKKCLVNQREVHRDTLGFSEALRSALREDPDIILVGEMRDLETIRLALTAAETGHLVFGTLHTTSAAKTIDRVVDVFPAEEKAMVRSMLSESLQSVISQTLIKKIGGGRVAAHEIMIGTPAIRNLIREDKVAQMYSAIQTGGSLGMQTLDMCLKGLVAKGLISRENAREKAKIPENF
notes: also called hexameric PilT; source: E. coli BL21(DE3), purified (Ni-NTA, amylose resin, SEC)
Question: For B2, which “stoichiometry N” value [3] is on record?
Answer: 6

B3: 6X-His tagged FimX (natural protein)
chain: MAIEKKTIRLLILEDSQNEAERLVSLFRNAGHATRVHRLTSPEDLAETLQQSWDLLIAAPTSECLEPGEALATLRRQSRDIPFIQLVADNSSDAITDALMLGAQDALPQGEDERLVLVANRELAGLAERRARRAAELALREAEKRCQLLLDSSVDAITYVHDGMHIYANRSYMALFGYEDAEELEGLPVIDLIASCDQGAFKDFLKGYQNDQRQTELVCTGVKLDGQEFKARISLSAATYDGEPCIQVVIRGEVDNAELEEKLREVSSQDPVTGLYNRSHFLDLMDAAVQQAVTARKPSTLAYIHLNGYPSLQADHGLSGIDLLLGQLAGLMREQFGEEADLARFGDSIFAALFKGKTPEQAQAALQRLLKKVENHLFELNGRSAQATLSIGVAGLDEKTAKAQDVMNRAHRCADDAARKGGSQIKQYNPAEELAAAAQRGDVIAILQQALETNSFRLLFQPVISLRGDSHENYEVLLRLLNPQGQEVPPAEFLHAAKEAGLAEKIDRWVILNSIKLLAEHRAKGHQTKLFVHLSSASLQDPGLLPWLGVALKAARLPPESLVFQISEADATSYLKQAKQLTQGLATLHCQAAISQFGCSLNPFNALKHLTVQFIKIDGSFVQDLNQVENQEILKGLIAELHEQQKLSIVPFVESASVLATLWQAGATYIQGYYLQGPSQAMDYDFSSGDE
notes: also called dimeric FimX; purified FimX; source: purified as 6X-His tagged protein as described previously [17]
Question: How did the “stoichiometry N” value [4] turn out when B3 was run?
Answer: 2
